The target of this experiment is T1, MBP-WWP2 (UniProt O00308 1-870).
T1 construct: WWP2; also called bacterially purified WWP2; source: bacterially expressed; bacterially purified (methods, results) or bacterial cell lysate
Put plainly: pull-down; GST, GST-p73 or GST-ΔNp73 on glutathione-Sepharose beads incubated with MBP-WWP2 for 1 h at 4°C; immunoblot with MBP antibody. Particulars: both partners purified. For orientation: Immunoblotting shows a protein as a band on a membrane.

T1 sequence (O00308 whole entry): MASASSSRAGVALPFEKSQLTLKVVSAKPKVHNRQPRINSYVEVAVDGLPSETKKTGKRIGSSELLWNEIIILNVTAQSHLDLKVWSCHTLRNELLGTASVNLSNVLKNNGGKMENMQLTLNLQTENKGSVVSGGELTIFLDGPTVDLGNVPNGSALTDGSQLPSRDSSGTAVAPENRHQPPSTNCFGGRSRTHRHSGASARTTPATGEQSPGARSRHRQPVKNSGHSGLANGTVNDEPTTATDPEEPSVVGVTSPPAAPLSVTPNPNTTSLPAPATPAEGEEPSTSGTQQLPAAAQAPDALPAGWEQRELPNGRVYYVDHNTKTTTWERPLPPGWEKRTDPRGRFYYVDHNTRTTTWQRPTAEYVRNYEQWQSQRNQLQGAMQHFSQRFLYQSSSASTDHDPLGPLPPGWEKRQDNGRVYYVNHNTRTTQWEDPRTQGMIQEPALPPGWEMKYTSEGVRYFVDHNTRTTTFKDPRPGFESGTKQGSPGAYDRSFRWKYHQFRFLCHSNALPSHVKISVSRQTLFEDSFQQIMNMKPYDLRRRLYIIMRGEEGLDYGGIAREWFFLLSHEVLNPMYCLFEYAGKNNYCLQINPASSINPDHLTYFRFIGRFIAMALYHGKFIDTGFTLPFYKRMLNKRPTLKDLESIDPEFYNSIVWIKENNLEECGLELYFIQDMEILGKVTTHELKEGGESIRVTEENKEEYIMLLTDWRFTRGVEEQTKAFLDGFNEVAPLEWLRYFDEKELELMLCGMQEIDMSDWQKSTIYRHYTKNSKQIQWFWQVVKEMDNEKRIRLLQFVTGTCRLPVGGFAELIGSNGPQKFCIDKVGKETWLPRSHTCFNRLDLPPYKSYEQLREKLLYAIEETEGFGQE

B1: GST-ΔNp73 (natural protein, UniProt O15350-8 1-587, looked up)
chain: MLYVGDPARHLATAQFNLLSSTMDQMSSRAASASPYTPEHAASVPTHSPYAQPSSTFDTMSPAPVIPSNTDYPGPHHFEVTFQQSSTAKSATWTYSPLLKKLYCQIAKTCPIQIKVSTPPPPGTAIRAMPVYKKAEHVTDVVKRCPNHELGRDFNEGQSAPASHLIRVEGNNLSQYVDDPVTGRQSVVVPYEPPQVGTEFTTILYNFMCNSSCVGGMNRRPILIIITLEMRDGQVLGRRSFEGRICACPGRDRKADEDHYREQQALNESSAKNGAASKRAFKQSPPAVPALGAGVKKRRHGDEDTYYLQVRGRENFEILMKLKESLELMELVPQPLVDSYRQQQQLLQRPSHLQPPSYGPVLSPMNKVHGGMNKLPSVNQLVGQPPPHSSAATPNLGPVGPGMLNNHGHAVPANGEMSSSHSAQSMVSGSHCTPPPPYHADPSLVSFLTGLGCPNCIEYFTSQGLQSIYHLQNLTIEDLGALKIPEQYRMTIWRGLQDLKQGHDYSTAQQLLRSSNAATISIGGSGELQRQRVMEAVHFRVRHTITIPNRGGPGGGPDEWADFGFDLPDCKARKQPIKEEFTEAEIH
Regarding B1, the binding result is on record as “binds”.

B2: GST-p73 (natural protein, UniProt O15350 1-636, looked up)
chain: MAQSTATSPDGGTTFEHLWSSLEPDSTYFDLPQSSRGNNEVVGGTDSSMDVFHLEGMTTSVMAQFNLLSSTMDQMSSRAASASPYTPEHAASVPTHSPYAQPSSTFDTMSPAPVIPSNTDYPGPHHFEVTFQQSSTAKSATWTYSPLLKKLYCQIAKTCPIQIKVSTPPPPGTAIRAMPVYKKAEHVTDVVKRCPNHELGRDFNEGQSAPASHLIRVEGNNLSQYVDDPVTGRQSVVVPYEPPQVGTEFTTILYNFMCNSSCVGGMNRRPILIIITLEMRDGQVLGRRSFEGRICACPGRDRKADEDHYREQQALNESSAKNGAASKRAFKQSPPAVPALGAGVKKRRHGDEDTYYLQVRGRENFEILMKLKESLELMELVPQPLVDSYRQQQQLLQRPSHLQPPSYGPVLSPMNKVHGGMNKLPSVNQLVGQPPPHSSAATPNLGPVGPGMLNNHGHAVPANGEMSSSHSAQSMVSGSHCTPPPPYHADPSLVSFLTGLGCPNCIEYFTSQGLQSIYHLQNLTIEDLGALKIPEQYRMTIWRGLQDLKQGHDYSTAQQLLRSSNAATISIGGSGELQRQRVMEAVHFRVRHTITIPNRGGPGGGPDEWADFGFDLPDCKARKQPIKEEFTEAEIH
notes: also called glutathione S-transferase (GST)–p73
As for B2, the binding result is recorded as “binds”.
